Data from patent publication US20040048327.

How the values were obtained:
[1] = system: T1, Ac-Leu-AHph-trans-EP-COOEt
T1 sequence: LX

[2] = system: T2, Cbz-Leu-ALeu-(2R, 3R)-EP-COOEt
T2 sequence: LL

[3] = system: T3, Cbz-Leu-Leu-ALeu-trans-EP-COOEt
T3 sequence: LLL

[4] = system: T4, Cbz-Leu-AAbu-trans-EP-COOH
T4 sequence: LX

[5] = system: T5, Cbz-Leu-AHph-(2S, 3S)-EP-COOEt
T5 sequence: LX

[6] = system: T6, Cbz-Leu-ALeu-trans-EP-COOEt
T6 sequence: LL

[7] = system: T7, Cbz-Leu-ALeu-(2S, 3S)-EP-COOEt
T7 sequence: LL

[8] = system: T8, Cbz-Leu-ALeu-cis-EP-COOEt
T8 sequence: LL

Cbz-AHph-trans-EP-COOEt = system: T9, Cbz-AHph-trans-EP-COOEt
T9 sequence: X

Cbz-ALeu-trans-EP-COOEt = system: T10, Cbz-ALeu-trans-EP-COOEt
T10 sequence: L

[9] = system: T11, Cbz-Leu-Leu-ALeu-(2S, 3S)-EP-COOEt
T11 sequence: LLL

[10] = system: T12, Cbz-Leu-Leu-ALeu-(2S, 3S)-EP-COOH
T12 sequence: LLL

[11] = system: T13, Cbz-Leu-AHph-(2S, 3S)-EP-COOH
T13 sequence: LX

Ac-AHph-trans-EP-COOEt = system: T14, Ac-AHph-trans-EP-COOEt
T14 sequence: X

[12] = system: T15, Cbz-Leu-AHph-(2R, 3R)-EP-COOEt
T15 sequence: LX

[13] = system: T16, Cbz-Leu-Leu-ALeu-(2R, 3R)-EP-COOEt
T16 sequence: LLL

[14] = system: T17, Cbz-Leu-AHph-cis-EP-COOEt
T17 sequence: LX

[15] = system: T18, Ac-Leu-ALeu-trans-EP-COOEt
T18 sequence: LL

[16] = system: T19, Cbz-Leu-AAbu-trans-EP-COOEt
T19 sequence: LX

[17] = system: T20, Suc-Np2-ALeu-trans-EP-COOEt
T20 sequence: XL

[18] = system: T21, PhPr-Val-Ala-AAsp-(2S, 3S)-EP-COOCH2Ph
T21 sequence: VAD

[19] = system: T22, Cbz-Leu-Phe-AGln-(2R, 3R)-EP-COOEt
T22 sequence: LFQ

[20] = system: T23, Boc-Np2-ALeu-trans-EP-COOEt
T23 sequence: XL

[21] = system: T24, Cbz-Leu-Phe-AGln-trans-EP-COOEt
T24 sequence: LFQ

[22] = system: T25, Cbz-Ala-Ala-AAsn-cis-EP-COOEt
T25 sequence: AAN

[23] = system: T26, Cbz-Phe-APhe-trans-EP-CH2CH2Ph
T26 sequence: FF

[24] = system: T27, Cbz-Ala-Ala-AAsn-(2R, 3R)-EP-COOEt
T27 sequence: AAN

[25] = system: T28, Cbz-Asp-Glu-Val-AAsp-(2R, 3R)-EP-COOEt
T28 sequence: DEVD

[26] = system: T29, Cbz-Leu-Glu-Thr-AAsp-(2R, 3R)-EP-COOEt
T29 sequence: LETD

Cbz-APhe-trans-EP-COOEt = system: T30, Cbz-APhe-trans-EP-COOEt
T30 sequence: F

[27] = system: T31, Boc-Abu-AHph-trans-EP-CH2CH2Ph
T31 sequence: XX

[28] = system: T32, Cbz-Ala-Ala-AAsn-(2S, 3S)-EP-COOEt
T32 sequence: AAN

[29] = system: T33, Cbz-Ala-Ala-AAsn-trans-EP-COOEt
T33 sequence: AAN

[30] = system: T34, Boc-Nva-AHph-trans-EP-COOEt
T34 sequence: XX

[31] = system: T35, Cbz-Phe-ALeu-trans-EP-CH2CH2Ph
T35 sequence: FL

[32] = system: T36, Boc-Nle-AHph-trans-EP-CH2CH2Ph
T36 sequence: XX

[33] = system: T37, Cbz-Ala-Ala-AAsn-trans-EP-COOCH2Ph
T37 sequence: AAN

[34] = system: T38, Boc-Nle-AHph-trans-EP-COOEt
T38 sequence: XX

[35] = system: T39, Cbz-Phe-ALeu-trans-EP-COOEt
T39 sequence: FL

[36] = system: T40, Cbz-Leu-Glu-Thr-AAsp-(2S, 3S)-EP-COOEt
T40 sequence: LETD

[37] = system: T41, PhPr-Val-Ala-AAsp-trans-EP-COOCH2Ph
T41 sequence: VAD

[38] = system: T42, Cbz-Leu-Phe-AGln-(2S, 3S)-EP-COOEt
T42 sequence: LFQ

[39] = system: T43, PhPr-Val-Ala-AAsp-(2R, 3R)-EP-COOCH2Ph
T43 sequence: VAD

[40] = system: T44, Cbz-Ala-Ala-NHN(CH2COOEt)-trans-EP-COOEt
T44 sequence: AAD

[41] = system: T45, Cbz-Asp-Glu-Val-AAsp-(2S, 3S)-EP-COOEt
T45 sequence: DEVD

[42] = system: T46, Cbz-Ile-Glu-Thr-AAsp-(2S, 3S)-EP-COOEt
T46 sequence: IETD

[43] = system: T47, PhPr-Val-Ala-AAsp-trans-EP-CH2CH2Ph
T47 sequence: VAD

[44] = system: T48, Nva-AHph-trans-EP-CH2CH2Ph.TFA
T48 sequence: XX

[45] = system: T49, Nle-AHph-trans-EP-COOEt.TFA
T49 sequence: XX

[46] = system: T50, Nva-AHph-trans-EP-COOEt.TFA
T50 sequence: XX

calpain
kobs/[I] [1]: 0.84 M⁻¹ s⁻¹
kobs/[I] [2]: 1.45 M⁻¹ s⁻¹
kobs/[I] [3]: 2.65 M⁻¹ s⁻¹
kobs/[I] [4]: 0.57 M⁻¹ s⁻¹
kobs/[I] [5]: 2.28 M⁻¹ s⁻¹
kobs/[I] [6]: 3.09 M⁻¹ s⁻¹
kobs/[I] [7]: 8.58 M⁻¹ s⁻¹
kobs/[I] [8]: 1.88 M⁻¹ s⁻¹
kobs/[I] (Cbz-AHph-trans-EP-COOEt): 2.44 M⁻¹ s⁻¹
kobs/[I] (Cbz-ALeu-trans-EP-COOEt): 1.75 M⁻¹ s⁻¹
kobs/[I] [9]: 2.48 M⁻¹ s⁻¹
kobs/[I] [10]: 0.82 M⁻¹ s⁻¹
kobs/[I] [11]: 2.12 M⁻¹ s⁻¹
kobs/[I] (Ac-AHph-trans-EP-COOEt): 1.29 M⁻¹ s⁻¹
kobs/[I] [12]: 2.12 M⁻¹ s⁻¹
kobs/[I] [13]: NI
kobs/[I] [14]: 1.09 M⁻¹ s⁻¹
kobs/[I] [15]: 1.48 M⁻¹ s⁻¹
kobs/[I] [16]: 1.98 M⁻¹ s⁻¹

cathepsin B
kobs/[I] [17]: 0.8 M⁻¹ s⁻¹
kobs/[I] [18]: 0.81 M⁻¹ s⁻¹
kobs/[I] [19]: NI
kobs/[I] [20]: 0.39 M⁻¹ s⁻¹
kobs/[I] [21]: 1.3 M⁻¹ s⁻¹
kobs/[I] [1]: 0.59 M⁻¹ s⁻¹
kobs/[I] [22]: NI
kobs/[I] [2]: NI
kobs/[I] [23]: NI
kobs/[I] [24]: NI
kobs/[I] [25]: NI
kobs/[I] [26]: NI
kobs/[I] [3]: NI
kobs/[I] (Cbz-APhe-trans-EP-COOEt): 1.8 M⁻¹ s⁻¹
kobs/[I] [27]: NI
kobs/[I] [4]: NI
kobs/[I] [5]: 0.67 M⁻¹ s⁻¹
kobs/[I] [28]: 6 M⁻¹ s⁻¹
kobs/[I] [6]: 23.3 M⁻¹ s⁻¹
kobs/[I] [7]: 1.8 M⁻¹ s⁻¹
kobs/[I] [8]: 6.27 M⁻¹ s⁻¹
kobs/[I] [29]: 1.27 M⁻¹ s⁻¹
kobs/[I] [30]: 2.7 M⁻¹ s⁻¹
kobs/[I] (Cbz-AHph-trans-EP-COOEt): 8.91 M⁻¹ s⁻¹
kobs/[I] (Cbz-ALeu-trans-EP-COOEt): 4.43 M⁻¹ s⁻¹
kobs/[I] [31]: NI
kobs/[I] [9]: 0.98 M⁻¹ s⁻¹
kobs/[I] [32]: NI
kobs/[I] [33]: 1.09 M⁻¹ s⁻¹
kobs/[I] [34]: 1.3 M⁻¹ s⁻¹
kobs/[I] [35]: 3.61 M⁻¹ s⁻¹
kobs/[I] [10]: 7.02 M⁻¹ s⁻¹
kobs/[I] [36]: NI
kobs/[I] [37]: < 10 M⁻¹ s⁻¹
kobs/[I] (Ac-AHph-trans-EP-COOEt): 40.6 M⁻¹ s⁻¹
kobs/[I] [38]: 4.73 M⁻¹ s⁻¹
kobs/[I] [39]: NI
kobs/[I] [40]: 2.53 M⁻¹ s⁻¹
kobs/[I] [12]: NI
kobs/[I] [13]: NI
kobs/[I] [14]: NI
kobs/[I] [41]: NI
kobs/[I] [15]: 8 M⁻¹ s⁻¹
kobs/[I] [42]: NI
kobs/[I] [43]: NI

chymotrypsin
kobs/[I] [22]: NI
kobs/[I] [24]: NI
kobs/[I] [25]: NI
kobs/[I] [26]: NI
kobs/[I] [28]: NI
kobs/[I] [29]: NI
kobs/[I] [36]: NI
kobs/[I] [37]: NI
kobs/[I] [41]: NI
kobs/[I] [43]: NI

dipeptidyl peptidase I
kobs/[I] [44]: 0.1 M⁻¹ s⁻¹
kobs/[I] [45]: 8.2 M⁻¹ s⁻¹
kobs/[I] [30]: 0.5 M⁻¹ s⁻¹
kobs/[I] [34]: 0.7 M⁻¹ s⁻¹
kobs/[I] [46]: 3.2 M⁻¹ s⁻¹
